Assay results reported in US20220089743A1 (Chugai, published 2022).

Legend:
Assay in all cases: cell-based or functional assay
[1] = molecular target: HLA-DQ2.5 on IHW09023 cells loaded with gamma 1 gliadin peptide (human; wheat)
[2] = molecular target: HLA-DQ2.5 on IHW09023 cells loaded with BC hordein peptide (human; barley)
[3] = molecular target: HLA-DQ2.5 on IHW09023 cells loaded with gamma 4a gliadin peptide (human; wheat)
[4] = molecular target: HLA-DQ2.5 on IHW09023 cells loaded with gamma 4d gliadin peptide (human; wheat)
[5] = molecular target: HLA-DQ2.5 on IHW09023 cells loaded with gamma 3 gliadin peptide (human; wheat)
[6] = molecular target: HLA-DQ2.5 on IHW09023 cells loaded with gamma 2 gliadin peptide (human; wheat)
[7] = molecular target: HLA-DQ2.5 on IHW09023 cells loaded with 33 mer gliadin peptide (human; wheat)
[8] = molecular target: HLA-DQ2.5 on IHW09023 cells loaded with omega1/2 gliadin peptide (human; wheat)

B1: DQN0344H0976/L0591//DQN0385H1352/L0681-F6 (bispecific antibody)
heavy 1: QVQLVESGGGVVQPGGSLRLSCAASGFTFSSAYWMVWVRQAPGQGLEWMGAVYGGSDTTYYAKWTEGRFTISRDTSKNTLYLQMNSLRAEDTAVYYCAREPLNYYYYGELNLWGQGTLVTVSSASTKGPSVFPLAPSSKSTSGGTAALGCLVKDYFPEPVTVSWNSGALTSGVHTFPAVLKSSGLYSLSSVVTVPSSSLGTQTYICNVNHKPSNTKVDKRVEPKSCDKTHTCPPCPAPELRRGPSVFLFPPKPKDTLMISRTPEVTCVVVDVSHEDPEVKFNWYVDGVEVHNAKTKPREEQYNSTYRVVSVLTVLHQDWLNGKEYKCKVSNKALPAPIEKTISKAKGQPREPQVYTLPPSREEMTKNQVSLTCLVKGFYPSDIAVEWESNGQPENNYKTTPPYLDSDGSFFLYSKLTVDKSRWQEGNVFSCSVLHEALHAHYTREELSLSP
light 1: DIQMTQSPSSLSASVGDRVTITCQATEEIYSGLAWYQQKPGKAPKLLIYYVSTLYEGIPARFSGSGSGTDFTLTISSLEPEDFAVYYCQTYEDVSAVTFGQGTKVEIKRTVAAPSVFIFPPSDEQLKSGTAEVVCLLNNFYPREAKVQWKVDNALQSGNSEESVTEQDSKDSTYSLSSTLTLSKADYEKHKVYACEVTHQGLSSPVTKSFNRGEC
heavy 2: QVQLVESGGGVVQPGRSLRLSCAASGFEFSEWYFMSWVRQAPGKGLEWVASIDTGSGSIDYAEWVEGRFTISRDNSKNTLYLQMNSLRAEDTAVYYCARDIGIDYNFWGPGTLVTVSSASTKGPSVFPLAPSSKSTSGGTAALGCLVEDYFPEPVTVSWNSGALTSGVHTFPAVLESSGLYSLSSVVTVPSSSLGTKTYICNVNHKPSNTKVDKRVEPKSCDKTHTCPPCPAPELRRGPSVFLFPPKPKDTLMISRTPEVTCVVVDVSHEDPEVKFNWYVDGVEVHNAKTKPREEQYNSTYRVVSVLTVLHQDWLNGKEYKCKVSNKALPAPIEKTISKAKGQPREPQVYTLPPSRKEMTKNQVSLTCLVKGFYPSDIAVEWESNGQPENNYKTTPPYLDSDGSFFLYSKLTVDKSRWQQGNVFSCSVLHEALHAHYTRKELSLSP
light 2: DIQMTQSPSSLSASVGDRVTITCQTTQSISSYLNWYQQKPGQPPKLLIYYASTKAEGIPARFSGSGLGTDFTLTISSLEPEDFAVYYCHYGISKVSFGQGTKVEIKRTVAAPSVFIFPPSDEQLKSGTAKVVCLLNNFYPREAKVQWKVDNALQSGNSKESVTEQDSKDSTYSLSSTLTLSKADYEKHKVYACEVTHQGLSSPVTKSFNRGEC
With B1 the “IC50, γ1 gliadin TCR, 250 nM γ1 gliadin” value [1] was 1.11 ng/mL, the “IC50, BC hordein TCR, 250 nM BC hordein” value [2] was 10.8 ng/mL and the “IC50, γ4a gliadin TCR, 25 µM γ4a gliadin” value [3] was 802 ng/mL. The “IC50, γ4d gliadin TCR, 100 µM γ4d gliadin” value (“IC50, γ4d gliadin TCR” below) [4] was 9.82 ng/mL, the “IC50, γ3 gliadin TCR, 100 µM γ3 gliadin” value [5] was 2.99 ng/mL and the “IC50, γ2 gliadin TCR, 250 nM γ2 gliadin” value [6] was 284 ng/mL. The “IC50, α1a gliadin TCR, 250 nM 33mer gliadin” value (“IC50, α1a gliadin TCR” for short) [7] was 0.29 ng/mL, the “IC50, α1b gliadin TCR, 250 nM 33mer gliadin” value (from here on “IC50, α1b gliadin TCR”) [7] was 1.37 ng/mL and the “IC50, α2 gliadin TCR, 250 nM 33mer gliadin” value (from here on “IC50, α2 gliadin TCR”) [7] was 0.31 ng/mL. For the same binder, the “IC50, ω1 gliadin TCR, 25 µM ω1/2 gliadin” value [8] was 1.48 ng/mL and the “IC50, ω2 gliadin TCR, 250 nM ω1/2 gliadin” value (“IC50, ω2 gliadin TCR” for short) [8] was 0.24 ng/mL.

B2: DQN0344H1013/L0620//DQN0385H1270/L0681-F6 (bispecific antibody)
heavy 1: QVQLVESGGGVVQPGRSLRLSCAASGFTFSSAYWMVWVRQAPGQGLEWMGAVYGGSDTTYYAKWTEGRFTISRDTSKNTLYLQMNSLRAEDTAVYYCAREPLNYYYYGELNVWGQGTLVTVSSASTKGPSVFPLAPSSKSTSGGTAALGCLVKDYFPEPVTVSWNSGALTSGVHTFPAVLKSSGLYSLSSVVTVPSSSLGTQTYICNVNHKPSNTKVDKRVEPKSCDKTHTCPPCPAPELRRGPSVFLFPPKPKDTLMISRTPEVTCVVVDVSHEDPEVKFNWYVDGVEVHNAKTKPREEQYNSTYRVVSVLTVLHQDWLNGKEYKCKVSNKALPAPIEKTISKAKGQPREPQVYTLPPSREEMTKNQVSLTCLVKGFYPSDIAVEWESNGQPENNYKTTPPYLDSDGSFFLYSKLTVDKSRWQEGNVFSCSVLHEALHAHYTREELSLSP
light 1: DIQMTQSPSSLSASVGDRVTITCQATENIYSGLAWYQQKPGKAPKLLIYYVSTLAYGIPARFSGSGSGTDFTLTISSLEPEDFAVYYCQTYEDVSAVTFGQGTKVEIKRTVAAPSVFIFPPSDEQLKSGTAEVVCLLNNFYPREAKVQWKVDNALQSGNSEESVTEQDSKDSTYSLSSTLTLSKADYEKHKVYACEVTHQGLSSPVTKSFNRGEC
heavy 2: QVQLVESGGGVVQPGRSLRLSCAASGFTFSEWYFMSWVRQAPGKGLEWVASIDTGSGSIDYAEWVEGRFTISRDNSKNTLYLQMNSLRAEDTAVYYCARDIGIDYNFWGPGTLVTVSSASTKGPSVFPLAPSSKSTSGGTAALGCLVEDYFPEPVTVSWNSGALTSGVHTFPAVLESSGLYSLSSVVTVPSSSLGTKTYICNVNHKPSNTKVDKRVEPKSCDKTHTCPPCPAPELRRGPSVFLFPPKPKDTLMISRTPEVTCVVVDVSHEDPEVKFNWYVDGVEVHNAKTKPREEQYNSTYRVVSVLTVLHQDWLNGKEYKCKVSNKALPAPIEKTISKAKGQPREPQVYTLPPSRKEMTKNQVSLTCLVKGFYPSDIAVEWESNGQPENNYKTTPPYLDSDGSFFLYSKLTVDKSRWQQGNVFSCSVLHEALHAHYTRKELSLSP
light 2: DIQMTQSPSSLSASVGDRVTITCQTTQSISSYLNWYQQKPGQPPKLLIYYASTKAEGIPARFSGSGLGTDFTLTISSLEPEDFAVYYCHYGISKVSFGQGTKVEIKRTVAAPSVFIFPPSDEQLKSGTAKVVCLLNNFYPREAKVQWKVDNALQSGNSKESVTEQDSKDSTYSLSSTLTLSKADYEKHKVYACEVTHQGLSSPVTKSFNRGEC
In the case of B2, the “IC50, γ1 gliadin TCR, 250 nM γ1 gliadin” value [1] is reported as 1.11 ng/mL, the “IC50, BC hordein TCR, 250 nM BC hordein” value [2] is reported as 7.54 ng/mL and the “IC50, γ4a gliadin TCR, 25 µM γ4a gliadin” value [3] is reported as 1160 ng/mL. The “IC50, γ4d gliadin TCR” value [4] was 13.1 ng/mL, the “IC50, γ3 gliadin TCR, 100 µM γ3 gliadin” value [5] was 2.63 ng/mL and the “IC50, γ2 gliadin TCR, 250 nM γ2 gliadin” value [6] was 322 ng/mL. The “IC50, α1a gliadin TCR” value [7] was 0.38 ng/mL, the “IC50, α1b gliadin TCR” value [7] was 1.78 ng/mL and the “IC50, α2 gliadin TCR” value [7] was 0.33 ng/mL. For the same binder, the “IC50, ω1 gliadin TCR, 25 µM ω1/2 gliadin” value [8] was 2.51 ng/mL and the “IC50, ω2 gliadin TCR” value [8] was 0.2 ng/mL.

B3: DQN0344H0976/L0591//DQN0385H1527/L0605-F6 (bispecific antibody)
heavy 1: QVQLVESGGGVVQPGGSLRLSCAASGFTFSSAYWMVWVRQAPGQGLEWMGAVYGGSDTTYYAKWTEGRFTISRDTSKNTLYLQMNSLRAEDTAVYYCAREPLNYYYYGELNLWGQGTLVTVSSASTKGPSVFPLAPSSKSTSGGTAALGCLVKDYFPEPVTVSWNSGALTSGVHTFPAVLKSSGLYSLSSVVTVPSSSLGTQTYICNVNHKPSNTKVDKRVEPKSCDKTHTCPPCPAPELRRGPSVFLFPPKPKDTLMISRTPEVTCVVVDVSHEDPEVKFNWYVDGVEVHNAKTKPREEQYNSTYRVVSVLTVLHQDWLNGKEYKCKVSNKALPAPIEKTISKAKGQPREPQVYTLPPSREEMTKNQVSLTCLVKGFYPSDIAVEWESNGQPENNYKTTPPYLDSDGSFFLYSKLTVDKSRWQEGNVFSCSVLHEALHAHYTREELSLSP
light 1: DIQMTQSPSSLSASVGDRVTITCQATEEIYSGLAWYQQKPGKAPKLLIYYVSTLYEGIPARFSGSGSGTDFTLTISSLEPEDFAVYYCQTYEDVSAVTFGQGTKVEIKRTVAAPSVFIFPPSDEQLKSGTAEVVCLLNNFYPREAKVQWKVDNALQSGNSEESVTEQDSKDSTYSLSSTLTLSKADYEKHKVYACEVTHQGLSSPVTKSFNRGEC
heavy 2: QVQLVESGGGVVQPGRSLRLSCAASGFTFASWYFMSWVRQAPGKGLEWVASIDTGSGSIDYAEWVEGRFTISRDNSKNTLYLQMNSLRAEDTAVYYCARDIGIDYNFWGPGTLVTVSSASTKGPSVFPLAPSSKSTSGGTAALGCLVEDYFPEPVTVSWNSGALTSGVHTFPAVLESSGLYSLSSVVTVPSSSLGTKTYICNVNHKPSNTKVDKRVEPKSCDKTHTCPPCPAPELRRGPSVFLFPPKPKDTLMISRTPEVTCVVVDVSHEDPEVKFNWYVDGVEVHNAKTKPREEQYNSTYRVVSVLTVLHQDWLNGKEYKCKVSNKALPAPIEKTISKAKGQPREPQVYTLPPSRKEMTKNQVSLTCLVKGFYPSDIAVEWESNGQPENNYKTTPPYLDSDGSFFLYSKLTVDKSRWQQGNVFSCSVLHEALHAHYTRKELSLSP
light 2: DIQMTQSPSSLSASVGDRVTITCQTTQSISSYLNWYQQKPGQPPKLLIYYASTKAEGIPARFSGSGSGTDFTLTISSLEPEDFAVYYCHYGISKVSFGQGTKVEIKRTVAAPSVFIFPPSDEQLKSGTAKVVCLLNNFYPREAKVQWKVDNALQSGNSKESVTEQDSKDSTYSLSSTLTLSKADYEKHKVYACEVTHQGLSSPVTKSFNRGEC
In the case of B3, the “IC50, γ1 gliadin TCR, 250 nM γ1 gliadin” value [1] is reported as 0.59 ng/mL, the “IC50, BC hordein TCR, 250 nM BC hordein” value [2] is reported as 6.54 ng/mL and the “IC50, γ4a gliadin TCR, 25 µM γ4a gliadin” value [3] is reported as 1210 ng/mL. The “IC50, γ4d gliadin TCR” value [4] was 11.4 ng/mL, the “IC50, γ3 gliadin TCR, 100 µM γ3 gliadin” value [5] was 2.09 ng/mL and the “IC50, γ2 gliadin TCR, 250 nM γ2 gliadin” value [6] was 637 ng/mL. The “IC50, α1a gliadin TCR” value [7] was 0.7 ng/mL, the “IC50, α1b gliadin TCR” value [7] was 1.84 ng/mL and the “IC50, α2 gliadin TCR” value [7] was 0.51 ng/mL. For the same binder, the “IC50, ω1 gliadin TCR, 25 µM ω1/2 gliadin” value [8] was 3.25 ng/mL and the “IC50, ω2 gliadin TCR” value [8] was 0.3 ng/mL.
